In PMC4854285:

Target: biotinylated peptide composed of residues 656-683 of the gp41 MPER (RRR-…-RRK-biotin) (HIV-1)
Assay: SPR

10E8 antigen-binding fragment (Fab) gave a Kd of 17 nM.
